These results are taken from patent EP2265113B1.

The target in experiment [1] is H-ferritin receptors (binding sites) on rat brain microvasculature (isolated microvessels). The experiment can be described thus: saturation binding of 125I-H-ferritin to rat brain microvessels, one-site global fit.
The target of experiment [2] is H-ferritin receptors (binding sites) on bovine retinal endothelial cells (BREC cell homogenate). The experiment can be described thus: homologous competition: unlabelled H-ferritin against 0.4 nM 125I-H-ferritin on BREC homogenate, one-site competition fit.
For experiment [3] the target is unchanged. Description: saturation binding of 125I-H-ferritin to BREC homogenate, one-site global fit.

The Kd is the free concentration of one partner at which half of the binding sites on the other are occupied at equilibrium, for simple one-to-one binding. Turning to “recombinant human H-ferritin (His tagged, expressed in E. coli, nickel column purified) (from UniProt P02794 1-183) (ligand)”, the Bmax (fmol/mg protein) is 573 in experiment [1] and 466 in experiment [3]. The Kd in experiment [1] amounted to 7.9 nM; in experiment [2], 2 nM; in experiment [3], 2.7 nM.
